Literature values as cited in article PMC9084902, “Low-Molecular Weight Protamine Overcomes Chondroitin Sulfate Inhibition of Neural Regeneration” (Frontiers in Cell and Developmental Biology, 2022).

What was measured:
[1] = ref Rauvala, 1989; cited from earlier work
Text: Protamine is a small 33 amino acid long protein that takes part in DNA packing during spermatogenesis ([Kasinsky et al., 2011]). Over 60% of the salmon protamine sequence is comprised of arginines so that it interacts strongly with negatively charged DNA phosphates in vivo and potentially with any other negatively charged molecules. […] Protamine sulfate is therefore widely used as a drug in cardiopulmonary bypass surgery to stop the effect of heparin ([Kaneda et al., 2005]; [Bromfield et al. ... || The CS chains even enhance the neurite outgrowth-promoting effect of HB-GAM, and we have ended up in a model according to which the CS chains of the CSPGs display a positive role by concentrating HB-GAM on the matrix and presenting it to neuron surface receptors. According to our model, two polycationic regions separated by a linker are essential to reverse the CS inhibition of neurite outgrowth ([Paveliev et al., 2016]; [Rauvala et al., 2017]). To test our hypothesis we decided to search for peptide structures that are similar to HB-GAM and display similar binding properties. Protamine displa ...

glypican-1 = details: through heparan sulfate chains; ref Paveliev et al., 2016; cited from earlier work
Text: In the case of HB-GAM we have identified glypican-1 as a neuron surface receptor using unbiased mass spectrometry search of neuron binding sites for the substrate-attached HB-GAM ([Paveliev et al., 2016]). […] Interaction of glypican-1 with LMWP also appears likely since LMWP binds to heparin/heparan sulfate chains. Another possible cell surface receptor of LMWP is the transmembrane receptor PTPRZ (protein tyrosine ph ...

CNS neurons = details: aggrecan and a CSPG mixture isolated from brain; ref Paveliev et al., 2016; cited from earlier work
Text: (§1) Our candidate protein to overcome the CS inhibition on neurite outgrowth and regeneration has been HB-GAM (heparin-binding growth-associated molecule; pleiotrophin) that was initially isolated by screening for factors from juvenile rat brain that enhance neurite outgrowth in CNS neurons ([Rauvala, 1989]; [Li et al., 1990]; [Merenmies and Rauvala, 1990]). […] Furthermore, we have recently shown t ...

[2] = test system: hemisection and hemicontusion spinal cord injury models; details: mice; ref Kulesskaya et al., 2021; cited from earlier work
Text: as §1

B1: heparin-binding growth-associated molecule (protein, UniProt P63090 33-168, looked up)
Pleiotrophin: GKKEKPEKKVKKSDCGEWQWSVCVPTSGDCGLGTREGTRTGAECKQTMKTQRCKIPCNWKKQFGAECKYQFQAWGECDLNTALKTRTGSLKRALHNADCQKTVTISKPCGKLTKPKPQAESKKKKKEGKKQEKMLD
notes: initially isolated by screening for factors from juvenile rat brain that enhance neurite outgrowth in CNS neurons
binding to heparin [1]: binds avidly to heparin
binding to glypican-1 (glypican-1): binds to HB-GAM through its heparan sulfate chains
neurite outgrowth on CSPG substrates (CNS neurons): overcomes the CS inhibition and enhances neurite outgrowth on CSPG substrates
functional recovery after spinal cord injury [2]: enhances functional recovery in hemisection and hemicontusion spinal cord injury models in mice
